These results are taken from patent US20200283502A1 (PEPTICOM LTD., priority 2017, published 2020).

Where a SMILES comes first, the peptide text is derived from it. Where no end group is shown, it is not given here. [ ]: non-standard residue; d: D form. His(π-Me) = Cn1cncc1C[C@H](N)C(=O)O; NMeT = CN[C@H](C(=O)O)[C@@H](C)O; Cha = N[C@@H](CC1CCCCC1)C(=O)O

For the assay, the target named is T1, human GABA receptor (subunits α1β3γ2) (Homo sapiens, UniProt P14867+P28472).
T1 construct: expressed in transfected cells; host or cells: HEK293
Kind of assay: manual whole-cell patch-clamp of GABA receptor-mediated Cl− current in HEK293 cells. The assay is classed as cell-based. The note with it: for Activity: human α1β3γ2 GABAA receptor, electrophysiological recordings; for potentiation of human GABA receptor-mediated Cl− current: receptor expressed in HEK293 cells, manual whole-cell patch-clamp. Here is the method: All the compounds of the present invention were tested and validated using electrophysiological recordings on the human GABAA receptor comprising of the following subunits α1β3γ2.
The peptides of the present invention are capable of activating, inhibiting or modulating the GABAA receptor. These peptides were derived in-silico and tested in-vitro in cell cultures. […] The human GABA receptor (subunits α1β3γ2) used in these experiments was expressed in HEK293 cells in manual whole-cell patch-clamp settings.
(In general: The patch-clamp technique gives a direct electrical read-out from membranes.)

T1 sequence (P14867 28-456): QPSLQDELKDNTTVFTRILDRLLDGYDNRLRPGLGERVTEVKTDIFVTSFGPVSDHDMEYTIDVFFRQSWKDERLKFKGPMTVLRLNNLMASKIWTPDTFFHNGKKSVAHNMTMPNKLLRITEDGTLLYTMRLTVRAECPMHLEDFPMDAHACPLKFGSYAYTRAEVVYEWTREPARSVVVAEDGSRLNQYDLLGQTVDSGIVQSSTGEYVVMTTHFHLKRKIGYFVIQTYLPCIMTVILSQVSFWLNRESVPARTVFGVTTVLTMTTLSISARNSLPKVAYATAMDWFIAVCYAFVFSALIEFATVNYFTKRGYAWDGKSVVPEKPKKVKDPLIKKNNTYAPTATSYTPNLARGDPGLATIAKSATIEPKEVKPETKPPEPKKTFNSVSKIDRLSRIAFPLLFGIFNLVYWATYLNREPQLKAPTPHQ
T1 sequence (P28472 26-473): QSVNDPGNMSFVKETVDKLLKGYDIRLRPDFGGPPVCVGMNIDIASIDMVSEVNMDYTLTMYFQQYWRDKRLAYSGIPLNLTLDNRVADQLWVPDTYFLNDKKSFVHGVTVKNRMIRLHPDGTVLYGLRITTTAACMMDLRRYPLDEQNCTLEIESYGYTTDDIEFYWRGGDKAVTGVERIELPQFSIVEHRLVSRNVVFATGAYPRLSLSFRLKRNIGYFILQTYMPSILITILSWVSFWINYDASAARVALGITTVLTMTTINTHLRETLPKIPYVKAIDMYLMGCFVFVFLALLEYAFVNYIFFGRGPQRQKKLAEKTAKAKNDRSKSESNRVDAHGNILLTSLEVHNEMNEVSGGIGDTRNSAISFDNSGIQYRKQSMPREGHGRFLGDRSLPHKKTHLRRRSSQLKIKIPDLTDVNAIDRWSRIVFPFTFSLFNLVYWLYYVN
T1 sequence (P18507 40-475 partner): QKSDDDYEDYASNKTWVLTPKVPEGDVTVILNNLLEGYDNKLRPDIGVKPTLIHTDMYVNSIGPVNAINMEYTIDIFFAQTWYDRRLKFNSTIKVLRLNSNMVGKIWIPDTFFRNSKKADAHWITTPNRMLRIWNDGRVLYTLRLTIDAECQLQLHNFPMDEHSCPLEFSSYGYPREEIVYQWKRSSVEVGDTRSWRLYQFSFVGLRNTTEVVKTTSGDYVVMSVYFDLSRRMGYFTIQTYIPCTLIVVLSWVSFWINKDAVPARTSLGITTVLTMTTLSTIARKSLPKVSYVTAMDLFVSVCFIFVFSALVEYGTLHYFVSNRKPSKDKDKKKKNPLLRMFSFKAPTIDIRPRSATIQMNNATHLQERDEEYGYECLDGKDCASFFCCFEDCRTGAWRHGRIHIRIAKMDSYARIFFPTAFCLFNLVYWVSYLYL

For the compound `C[C@@H](O)[C@@H](C(=O)N[C@@H](Cc1c[nH]c2ccccc12)C(=O)N[C@@H](CCC(N)=O)C(=O)N[C@H](C=O)CCC(=O)O)N(C)C(=O)[C@@H](N)Cc1cncn1C` [SEQ ID NO:3, (3-methyl-L-histidine)-(N-methyl-threonine)-WQE] (H-[His(π-Me)][NMeT]WQE-aldehyde), the Activity entry is “Positive allosteric modulator” and the “potentiation of human GABA receptor-mediated Cl− current” value (“potentiation” below) is “selective potentiation”.
“His—Pro—Pro—Ala—Thr (HPPAT; printed: His—Pro—Pro—Ala—Thr) [SEQ ID NO:8]”: the Activity result is reported as “Positive allosteric modulator” and the “potentiation” value is listed as “selective potentiation”.
With “Arg—Thr—Trp—Gly—Glu (RTWGE; printed: Arg—Thr—Trp—Gly—Glu) [SEQ ID NO:13]”, the “potentiation” value is reported as “selective potentiation”.
Regarding “His—Pro—Trp—Gln (HPWQ; printed: His—Pro—Trp—Gln) [SEQ ID NO:15]”, the Activity result was “Positive allosteric modulator” and the “potentiation” value was “selective potentiation”.
The like results for “His—Thr—Trp—Gln—Glu (HTWQE; printed: His—Thr—Trp—Gln—Glu) [SEQ ID NO:1]” were, in that order, “Positive allosteric modulator” and “selective potentiation”.
The like results for “His—Thr—Trp—Lys—Lys (HTWKK; printed: His—Thr—Trp—Lys—Lys) [SEQ ID NO:6]” were, in that order, “Positive allosteric modulator” and “selective potentiation”.
In the case of “Arg—Phe—His—Ser (RFHS; printed: Arg—Phe—His—Ser) [SEQ ID NO:10]”, the Activity result is reported as “Positive allosteric modulator” and the “potentiation” value is “selective potentiation”.
The like results for `C[C@@H](O)[C@@H](C(=O)N[C@H](Cc1c[nH]c2ccccc12)C(=O)N[C@@H](CCC(N)=O)C(=O)N[C@H](C=O)CCC(=O)O)N(C)C(=O)[C@@H](N)Cc1cncn1C` [SEQ ID NO:4, (3-methyl-L-histidine)-(N-methyl-threonine)-(N-methyl-tryptophan)-QE] (H-[His(π-Me)][NMeT][dW]QE-aldehyde) were, in that order, “Positive allosteric modulator” and “selective potentiation”.
The matching figures for His—Ile—Ser—NH2 [SEQ ID NO:9]: “Positive allosteric modulator” and “selective potentiation”.
The matching figures for “His—Thr—Trp—Pro (HTWP; printed: His—Thr—Trp—Pro) [SEQ ID NO:14]”: “Positive allosteric modulator” and “selective potentiation”.
For the compound “His—Thr—Thr—Gly—Asp (HTTGD; printed: His—Thr—Thr—Gly—Asp) [SEQ ID NO:12]”, the Activity result is listed as “Positive allosteric modulator” and the “potentiation” value is reported as “selective potentiation”.
As to `C[C@@H](O)[C@H](NC(=O)[C@@H](N)CC1CCCCC1)C(=O)N[C@@H](Cc1c[nH]c2ccccc12)C(=O)N[C@@H](CCC(N)=O)C(=O)N[C@H](C=O)CCC(=O)O` [SEQ ID NO:2, (L-cyclohexyl-alanine)- TWQE] (H-[Cha]TWQE-aldehyde), the Activity entry is given as “Positive allosteric modulator” and the “potentiation” value is on record as “selective potentiation”.
The like results for “Thr—Glu—Ser—Lys—Gly—NH2 (TESKG-NH2) [SEQ ID NO:11]” were, in that order, “Positive allosteric modulator” and “selective potentiation”.
Regarding “His—Thr—Trp—Tyr—Glu (HTWYE; printed: His—Thr—Trp—Tyr—Glu) [SEQ ID NO:7]”, the Activity entry is reported as “Positive allosteric modulator” and the “potentiation” value is “selective potentiation”.
